Results as given in paper PMC13000311 (Nature Communications, 2026).

B1: human flotillin-1 with a C-terminal 3× FLAG tag (natural protein, UniProt O75955 1-427, looked up)
chain: MFFTCGPNEAMVVSGFCRSPPVMVAGGRVFVLPCIQQIQRISLNTLTLNVKSEKVYTRHGVPISVTGIAQVKIQGQNKEMLAAACQMFLGKTEAEIAHIALETLEGHQRAIMAHMTVEEIYKDRQKFSEQVFKVASSDLVNMGISVVSYTLKDIHDDQDYLHSLGKARTAQVQKDARIGEAEAKRDAGIREAKAKQEKVSAQYLSEIEMAKAQRDYELKKAAYDIEVNTRRAQADLAYQLQVAKTKQQIEEQRVQVQVVERAQQVAVQEQEIARREKELEARVRKPAEAERYKLERLAEAEKSQLIMQAEAEAASVRMRGEAEAFAIGARARAEAEQMAKKAEAFQLYQEAAQLDMLLEKLPQVAEEISGPLTSANKITLVSSGSGTMGAAKVTGEVLDILTRLPESVERLTGVSISQVNHKPLRTA
B2: human flotillin-2 (as in the purified complex used for cryo-EM) (natural protein, UniProt Q14254 1-428, looked up)
chain: MGNCHTVGPNEALVVSGGCCGSDYKQYVFGGWAWAWWCISDTQRISLEIMTLQPRCEDVETAEGVALTVTGVAQVKIMTEKELLAVACEQFLGKNVQDIKNVVLQTLEGHLRSILGTLTVEQIYQDRDQFAKLVREVAAPDVGRMGIEILSFTIKDVYDKVDYLSSLGKTQTAVVQRDADIGVAEAERDAGIREAECKKEMLDVKFMADTKIADSKRAFELQKSAFSEEVNIKTAEAQLAYELQGAREQQKIRQEEIEIEVVQRKKQIAVEAQEILRTDKELIATVRRPAEAEAHRIQQIAEGEKVKQVLLAQAEAEKIRKIGEAEAAVIEAMGKAEAERMKLKAEAYQKYGDAAKMALVLEALPQIAAKIAAPLTKVDEIVVLSGDNSKVTSEVNRLLAELPASVHALTGVDLSKIPLIKKATGVQV

How the values were obtained:
cryo-EM structure = molecular target: the molecule itself; test: cryo-EM structure
[1] = molecular target: B1; test: cryo-EM structure

Row | Binder | binding result (cryo-EM structure) | stoichiometry N [1]
1 | B1 | binds | –
2 | B2 | – | 44 protomers (22 flotillin-1 and 22 flotillin-2)
